Km data for one protein are collected here from ChEMBL document CHEMBL1135258, “Substrate spectrum of tyrocidine thioesterase probed with randomized peptide N-acetylcysteamine thioesters” (Bioorg Med Chem Lett, 2002).

What all share (conditions): Brevibacillus brevis
Substrate in series [1]: CC(=O)NCCSC(=O)[C@H](CC(C)C)NC(=O)[C@H](CCCN)NC(=O)[C@@H](NC(=O)[C@H](CC(N)=O)NC(=O)[C@H](CCC(N)=O)NC(=O)[C@H](CC(N)=O)NC(=O)[C@@H](Cc1ccccc1)NC(=O)[C@H](Cc1ccccc1)NC(=O)[C@@H]1CCCN1C(=O)[C@H](N)Cc1ccccc1)C(C)C
Briefly: (§1) Apparent kinetic constant (Km) determined for tyrocidine thioesterase amplified from Bacillus brevis (ATCC8185).

Substrate in series [2]: CC(=O)NCCSC(=O)[C@H](CC(C)C)NC(=O)[C@H](CCCN)NC(=O)[C@@H](NC(=O)[C@H](Cc1ccc(O)cc1)NC(=O)[C@H](CCC(N)=O)NC(=O)[C@H](CC(N)=O)NC(=O)[C@@H](Cc1ccccc1)NC(=O)[C@H](Cc1ccccc1)NC(=O)[C@H](CC(N)=O)NC(=O)[C@H](N)Cc1ccccc1)C(C)C
Described as §1.

Substrate in series [3]: CC[C@@H](C)[C@H](NC(=O)[C@H](CC(N)=O)NC(=O)[C@@H](Cc1ccccc1)NC(=O)[C@H](Cc1ccccc1)NC(=O)[C@@H]1CCCN1C(=O)[C@H](N)Cc1ccccc1)C(=O)N[C@@H](Cc1ccc(O)cc1)C(=O)N[C@H](C(=O)N[C@@H](CCCN)C(=O)N[C@@H](CC(C)C)C(=O)SCCNC(C)=O)C(C)C
The series is described as §1.

Substrate in series [4]: CC(=O)NCCSC(=O)[C@H](CC(C)C)NC(=O)[C@H](CCCN)NC(=O)[C@@H](NC(=O)[C@H](Cc1ccc(O)cc1)NC(=O)[C@H](CCC(N)=O)NC(=O)[C@H](CC(N)=O)NC(=O)[C@H](C)NC(=O)[C@H](Cc1ccccc1)NC(=O)[C@@H]1CCCN1C(=O)[C@H](N)Cc1ccccc1)C(C)C
The description is as §1.

Substrate in series [5]: CC(=O)NCCSC(=O)[C@H](CC(C)C)NC(=O)[C@H](CCCN)NC(=O)[C@@H](NC(=O)[C@H](Cc1ccc(O)cc1)NC(=O)[C@H](CCC(N)=O)NC(=O)[C@H](CC(N)=O)NC(=O)[C@H](CCC(=O)O)NC(=O)[C@H](Cc1ccccc1)NC(=O)[C@@H]1CCCN1C(=O)[C@H](N)Cc1ccccc1)C(C)C
The description is as §1.

Substrate in series [6]: CC(=O)NCCSC(=O)[C@H](CC(C)C)NC(=O)[C@H](CCCN)NC(=O)[C@@H](NC(=O)[C@H](Cc1ccc(O)cc1)NC(=O)[C@H](CCC(N)=O)NC(=O)[C@H](CC(N)=O)NC(=O)[C@@H](Cc1ccccc1)NC(=O)[C@H](Cc1ccccc1)NC(=O)[C@@H]1CCCN1C(=O)[C@H](N)Cc1ccccc1)C(C)C
The series is described as §1.

Substrate in series [7]: CC(=O)NCCSC(=O)[C@H](CC(C)C)NC(=O)[C@H](CCCN)NC(=O)[C@@H](NC(=O)[C@H](Cc1ccc(O)cc1)NC(=O)[C@H](CCC(N)=O)NC(=O)[C@H](CC(N)=O)NC(=O)[C@H](CCC(N)=O)NC(=O)[C@H](Cc1ccccc1)NC(=O)[C@@H]1CCCN1C(=O)[C@H](N)Cc1ccccc1)C(C)C
The series is described as §1.

Substrate in series [8]: CC(=O)NCCSC(=O)[C@H](CC(C)C)NC(=O)[C@H](CCCN)NC(=O)[C@@H](NC(=O)[C@H](Cc1ccc(O)cc1)NC(=O)[C@H](CCC(N)=O)NC(=O)[C@H](CC(N)=O)NC(=O)[C@H](Cc1ccccc1)NC(=O)[C@H](Cc1ccccc1)NC(=O)[C@@H]1CCCN1C(=O)[C@H](N)Cc1ccccc1)C(C)C
Described as §1.

Substrate in series [9]: CC(=O)NCCSC(=O)[C@H](CC(C)C)NC(=O)[C@H](CCCN)NC(=O)[C@@H](NC(=O)[C@H](Cc1ccc(O)cc1)NC(=O)[C@H](CCC(N)=O)NC(=O)[C@H](CC(N)=O)NC(=O)[C@H](CO)NC(=O)[C@H](Cc1ccccc1)NC(=O)[C@@H]1CCCN1C(=O)[C@H](N)Cc1ccccc1)C(C)C
The series is described as §1.

Substrate in series [10]: CC(=O)NCCSC(=O)[C@H](CC(C)C)NC(=O)[C@H](CCCN)NC(=O)[C@@H](NC(=O)[C@H](Cc1ccc(O)cc1)NC(=O)[C@H](CCC(N)=O)NC(=O)[C@H](CC(N)=O)NC(=O)[C@H](CCCCN)NC(=O)[C@H](Cc1ccccc1)NC(=O)[C@@H]1CCCN1C(=O)[C@H](N)Cc1ccccc1)C(C)C
Described as §1.

Substrate in series [11]: CC(=O)NCCSC(=O)[C@H](CC(C)C)NC(=O)[C@H](CCCN)NC(=O)[C@@H](NC(=O)[C@H](Cc1ccc(O)cc1)NC(=O)[C@H](CCC(N)=O)NC(=O)[C@H](CC(N)=O)NC(=O)[C@@H](NC(=O)[C@H](Cc1ccccc1)NC(=O)[C@@H]1CCCN1C(=O)[C@H](N)Cc1ccccc1)C(C)C)C(C)C
The description is as §1.

Substrate in series [12]: CC[C@H](C)[C@H](NC(=O)[C@H](Cc1ccccc1)NC(=O)[C@@H]1CCCN1C(=O)[C@H](N)Cc1ccccc1)C(=O)N[C@@H](CC(N)=O)C(=O)N[C@@H](CCC(N)=O)C(=O)N[C@@H](Cc1ccc(O)cc1)C(=O)N[C@H](C(=O)N[C@@H](CCCN)C(=O)N[C@@H](CC(C)C)C(=O)SCCNC(C)=O)C(C)C
The series is described as §1.

Substrate in series [13]: CC(=O)NCCSC(=O)[C@H](CC(C)C)NC(=O)[C@H](CCCN)NC(=O)[C@@H](NC(=O)[C@H](Cc1ccc(O)cc1)NC(=O)[C@H](CCC(N)=O)NC(=O)[C@H](CC(N)=O)NC(=O)[C@H](CC(=O)O)NC(=O)[C@H](Cc1ccccc1)NC(=O)[C@@H]1CCCN1C(=O)[C@H](N)Cc1ccccc1)C(C)C
Described as §1.

Substrate in series [14]: CC(=O)NCCSC(=O)[C@H](CC(C)C)NC(=O)[C@H](CCCN)NC(=O)[C@@H](NC(=O)[C@H](Cc1ccc(O)cc1)NC(=O)[C@H](CC(N)=O)NC(=O)[C@H](CC(N)=O)NC(=O)[C@@H](Cc1ccccc1)NC(=O)[C@H](Cc1ccccc1)NC(=O)[C@@H]1CCCN1C(=O)[C@H](N)Cc1ccccc1)C(C)C
The description is as §1.

Substrate in series [15]: CC(=O)NCCSC(=O)[C@H](CC(C)C)NC(=O)[C@H](CCCN)NC(=O)[C@@H](NC(=O)[C@H](Cc1ccc(O)cc1)NC(=O)[C@H](CCC(N)=O)NC(=O)[C@H](CC(N)=O)NC(=O)[C@@H](Cc1ccccc1)NC(=O)[C@H](Cc1ccccc1)NC(=O)[C@H](CC(=O)O)NC(=O)[C@H](N)Cc1ccccc1)C(C)C
Described as §1.

Where “and” joins values, the source holds several entries; their conditions need not be identical. Equal values may be shown once.

Broadly, the Km is the concentration of substrate that gives half-maximal velocity.

B1: Thioesterase GrsT homolog tycF (Brevibacillus brevis), O30412 (protein)
chain: MKLFCFPYAGGLPGIYYSWKSRLPPTFLEIDAFEVRPHIPQPNRDVFLPTSFYELLEDVCDRITPALTETPFAFFGHSMGGLVAFELTRKLMQKGAPLPQHLFLSASRAPHAYGKLAKTYNLPHDEFVEALRKLGGTPDDVLENQELLELFLPILRADFQAVQTYEMNPDLPRQVPVNMTVLYGTEDTIALEDIWAWRDYCQGACQFFPVSGGHFFIHHQTSPILEIIQNVLKEEKTVAIHSSF
In the case of B1, the Km in series [1] is 7.6 µM; in series [2] it was 82 µM; in [3], 82 µM; in [4], 19 µM; in [5], 12 µM; in series [6] it was 13 µM and 9.2 µM. For the same protein, the Km in series [7] was 16 µM; in [8] it was 4.8 µM; in series [9] it was 14 µM; in [10] it was 15 µM; in [11], 145 µM; in [12], 32 µM. The Km in series [13] came out at 238 µM; in series [14] it was 112 µM; in series [15], 96 µM.
